Source: US20190241648A1 (STATEN BIOTECHNOLOGY B V, published 2019)
Ends that are not written are not given here.

Experiments:
ApoC3 peptide L67E = target: T1, ApoC3 peptide L67E (human, thioether (positions not given here); not fully specified (bridges); also: thioether between a C-terminal Cys side chain and a modified N-terminus, the Cys is not in the chain); experiment: peptide microarray
T1 peptide: DKFSEFWDEDPEV

ApoC3 peptide L67A = target: T2, ApoC3 peptide L67A (human, not fully specified; cyclic (thioether)); experiment: peptide microarray
T2 peptide: DKFSEFWDADPEV

ApoC3 peptide E63Y = target: T3, ApoC3 peptide E63Y (human, cyclic (thioether)); experiment: peptide microarray
T3 peptide: DKFSYFWDLDPEV

ApoC3 peptide E63C = target: T4, ApoC3 peptide E63C (human, not fully specified; cyclic (thioether)); experiment: peptide microarray
T4 peptide: DKFSCFWDLDPEV

ApoC3 peptide S62F = target: T5, ApoC3 peptide S62F (human, not fully specified; cyclic (thioether)); experiment: peptide microarray
T5 peptide: DKFFEFWDLDPEV

ApoC3 peptide … F64A = target: T6, ApoC3 peptide … F64A (human, not fully specified (bridges); also: cyclic constrained); experiment: peptide microarray
T6 peptide: DKFSEAWDLDPEV
Summary of the method: (§1)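 ApoC3 peptide microarrays incubated with antibody samples and then stained with goat anti-human IgG (Fc) DyLight680 plus anti-HA DyLight800 control antibody. Scanned at intensity 7/7 (red/green); a secondary-only prestain checked for background, and framing HA peptides served as quality control.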

ApoC3 peptide … S62R = ApoC3 peptide … S62R (human, cyclic constrained); experiment: peptide microarray
Summary of the method: as §1

ApoC3 peptide … D59F = target: T7, ApoC3 peptide … D59F (human, not fully specified (bridges); also: cyclic constrained); experiment: peptide microarray
T7 peptide: FKFSEFWDLDPEV
Summary of the method: as §1

ApoC3 peptide … S62W = ApoC3 peptide … S62W (human, cyclic constrained); experiment: peptide microarray
Summary of the method: as §1

ApoC3 peptide … D68I = target: T8, ApoC3 peptide … D68I (human, cyclic constrained); experiment: peptide microarray
T8 peptide: DKFSEFWDLIPEV
Summary of the method: as §1

ApoC3 peptide … W65F = ApoC3 peptide … W65F (human, cyclic constrained); experiment: peptide microarray
Summary of the method: as §1

ApoC3 peptide … D68E = target: T9, ApoC3 peptide … D68E (human, cyclic constrained); experiment: peptide microarray
T9 peptide: DKFSEFWDLEPEV
Summary of the method: as §1

ApoC3 peptide … P69M = target: T10, ApoC3 peptide … P69M (human, not fully specified (bridges); also: cyclic constrained); experiment: peptide microarray
T10 peptide: DKFSEFWDLDMEV
Summary of the method: as §1

ApoC3 peptide … S62K = ApoC3 peptide … S62K (human, cyclic constrained); experiment: peptide microarray
Summary of the method: as §1

ApoC3 peptide … V71F = ApoC3 peptide … V71F (human, cyclic constrained); experiment: peptide microarray
Summary of the method: as §1

ApoC3 peptide … F64R = target: T11, ApoC3 peptide … F64R (human, not fully specified (bridges); also: cyclic constrained); experiment: peptide microarray
T11 peptide: DKFSERWDLDPEV
Summary of the method: as §1

ApoC3 peptide … D68P = target: T12, ApoC3 peptide … D68P (human, cyclic constrained); experiment: peptide microarray
T12 peptide: DKFSEFWDLPPEV
Summary of the method: as §1

ApoC3 peptide … F61W = target: T13, ApoC3 peptide … F61W (human, not fully specified (bridges); also: cyclic constrained); experiment: peptide microarray
T13 peptide: DKWSEFWDLDPEV
Summary of the method: as §1

ApoC3 peptide … E63V = ApoC3 peptide … E63V (human, cyclic constrained); experiment: peptide microarray
Summary of the method: as §1

ApoC3 peptide … L67Q = target: T14, ApoC3 peptide … L67Q (human, not fully specified (bridges); also: cyclic constrained); experiment: peptide microarray
T14 peptide: DKFSEFWDQDPEV
Summary of the method: as §1

ApoC3 peptide … V71I = ApoC3 peptide … V71I (human, cyclic constrained); experiment: peptide microarray
Summary of the method: as §1

ApoC3 peptide … F64P = target: T15, ApoC3 peptide … F64P (human, not fully specified (bridges); also: cyclic constrained); experiment: peptide microarray
T15 peptide: DKFSEPWDLDPEV
Summary of the method: as §1

ApoC3 peptide … F61H = target: T16, ApoC3 peptide … F61H (human, cyclic constrained); experiment: peptide microarray
T16 peptide: DKHSEFWDLDPEV
Summary of the method: as §1

ApoC3 peptide … F64I = target: T17, ApoC3 peptide … F64I (human, not fully specified (bridges); also: cyclic constrained); experiment: peptide microarray
T17 peptide: DKFSEIWDLDPEV
Summary of the method: as §1

ApoC3 peptide … V71Q = ApoC3 peptide … V71Q (human, cyclic constrained); experiment: peptide microarray
Summary of the method: as §1

ApoC3 peptide … E63H = ApoC3 peptide … E63H (human, cyclic constrained); experiment: peptide microarray
Summary of the method: as §1

ApoC3 peptide … D66M = target: T18, ApoC3 peptide … D66M (human, not fully specified (bridges); also: cyclic constrained); experiment: peptide microarray
T18 peptide: DKFSEFWMLDPEV
Summary of the method: as §1

ApoC3 peptide … E63Q = ApoC3 peptide … E63Q (human, cyclic constrained); experiment: peptide microarray
Summary of the method: as §1

ApoC3 peptide … F61I = target: T19, ApoC3 peptide … F61I (human, cyclic constrained); experiment: cyclic peptide substitution array
T19 peptide: DKISEFWDLDPEV

ApoC3 peptide … L67N = target: T20, ApoC3 peptide … L67N (human, not fully specified (bridges); also: cyclic constrained); experiment: cyclic peptide substitution array
T20 peptide: DKFSEFWDNDPEV

ApoC3 peptide … E63W = ApoC3 peptide … E63W (human, cyclic constrained); experiment: cyclic peptide substitution array
[1] = target: T21, ApoC3 peptide … G41V (human); experiment: peptide microarray
T21 sequence (peptide, cyclic constrained): ARVWVTDGFSSLK

[2] = target: T22, ApoC3 peptide … D45T (human); experiment: peptide microarray
T22 sequence (peptide, cyclic constrained): ARGWVTTGFSSLK

[3] = target: T23, ApoC3 peptide … G41P (human); experiment: peptide microarray
T23 sequence (peptide, cyclic constrained): ARPWVTDGFSSLK

[4] = target: T24, ApoC3 peptide … V43W (human); experiment: peptide microarray
T24 sequence (peptide, cyclic constrained): ARGWWTDGFSSLK

[5] = target: T25, ApoC3 peptide … V43Q (human); experiment: peptide microarray
T25 sequence (peptide, cyclic constrained): ARGWQTDGFSSLK

[6] = target: T26, ApoC3 peptide … V43T (human); experiment: peptide microarray
T26 sequence (peptide, cyclic constrained): ARGWTTDGFSSLK

[7] = target: T27, ApoC3 peptide … G41T (human); experiment: peptide microarray
T27 sequence (peptide, cyclic constrained): ARTWVTDGFSSLK

B1: anti-ApoC3 antibody 6A6 (antibody, V domains shown)
VH: EVQLVESGGGLVQPGGSLRLSCAASGFTFSSYAGRWVRQVPGKGLEWVSSINAGGGSTSYADSVKGRFTISRDNAKNTLYLQMNSLKPEDTAKYYCTQNSYRYWGQGTRVAVSS
VL: DVVLTQTPGSLSVVPGESASISCKASQSLIHTDGKTYLYWLLQKPGQRPQLLIYQVSSHESGVPDRFTGSGSGTDFTLKISGVKAEDAGVYYCAQATYNPRTFGQGTKLEIK
notes: it was detected with goat anti-human IgG (Fc); also called mAb 6A6; llama antibody 6A6
In the case of B1, the % of binding to wild-type peptide (ApoC3 peptide L67E) is reported as 8.52%, the % of binding to wild-type peptide (ApoC3 peptide L67A) is reported as 9.07% and the % of binding to wild-type peptide (ApoC3 peptide E63Y) is reported as 8.92%. For the same binder, the % of binding to wild-type peptide (ApoC3 peptide E63C) was 7.93%, the % of binding to wild-type peptide (ApoC3 peptide S62F) was 9.54% and the “% of binding to wild-type peptide” value (ApoC3 peptide … F64A) was 166%. For the same binder, the “% of binding to wild-type peptide” value (ApoC3 peptide … S62R) was 37.2%, the “% of binding to wild-type peptide” value (ApoC3 peptide … D59F) was 61.5% and the “% of binding to wild-type peptide” value (ApoC3 peptide … S62W) was 4.78%. The “% of binding to wild-type peptide” value (ApoC3 peptide … D68I) was 0%, the “% of binding to wild-type peptide” value (ApoC3 peptide … W65F) was 55.3% and the “% of binding to wild-type peptide” value (ApoC3 peptide … D68E) was 56.9%. The “% of binding to wild-type peptide” value (ApoC3 peptide … P69M) was 44.1%, the “% of binding to wild-type peptide” value (ApoC3 peptide … S62K) was 11.1% and the “% of binding to wild-type peptide” value (ApoC3 peptide … V71F) was 85.4%. The “% of binding to wild-type peptide” value (ApoC3 peptide … F64R) was 79.1%, the “% of binding to wild-type peptide” value (ApoC3 peptide … D68P) was 0% and the “% of binding to wild-type peptide” value (ApoC3 peptide … F61W) was 32.9%. The “% of binding to wild-type peptide” value (ApoC3 peptide … E63V) was 13%, the “% of binding to wild-type peptide” value (ApoC3 peptide … L67Q) was 25.7% and the “% of binding to wild-type peptide” value (ApoC3 peptide … V71I) was 54.3%. The “% of binding to wild-type peptide” value (ApoC3 peptide … F64P) was 285%, the “% of binding to wild-type peptide” value (ApoC3 peptide … F61H) was 44.2% and the “% of binding to wild-type peptide” value (ApoC3 peptide … F64I) was 100%. The “% of binding to wild-type peptide” value (ApoC3 peptide … V71Q) was 81.4%, the “% of binding to wild-type peptide” value (ApoC3 peptide … E63H) was 12.3% and the “% of binding to wild-type peptide” value (ApoC3 peptide … D66M) was 0.08%. For the same binder, the “% of binding to wild-type peptide” value (ApoC3 peptide … E63Q) was 46.3%.

B2: Llama antibody 5E5 (antibody, V domains shown)
VH: QLQLVESGGGLVQPGGSLRLSCAASGFTFGTYSMRWVRQVPRKALEWVSSISTDGGGTAYRDSVKGRFTISRDNAKNTLYLQMNNLKPEDTAIYYCVIAGYSDWGQGTQVTVSS
VL: ATMLTQSPGSLSVVPGESASISCKTSQGLVHSDGKTYFYWFLQKPGQSPQQLIYQVSNRASGVPDRFTGSGSGTDFTLKISGVKAEDAGVYYCAQGTYYPHTFGSGTRLEIK
notes: detected with goat anti-human IgG (Fc); also called mAb 5E5
B2 showed a % of binding to wild-type peptide (ApoC3 peptide … F61I) of 7.59%, a % of binding to wild-type peptide (ApoC3 peptide … L67N) of 9.84% and a % of binding to wild-type peptide (ApoC3 peptide … E63W) of 9.57%.

B3: anti-ApoC3 antibody 14C7 (antibody, V domains shown)
VH: QVQVQESGPGLVKPSQTLSLTCTVSGGSITTNSYYWSWIRQPPGKGLEWMGAIDYSGDTYYSPSLKSRTSISRDTSKNQFTLQLTSVTPEDTAVYYCVSRIPTGEYWGQGTQVTVSS
VL: QTVVTQEPSLSVSPGGTVTLTCGLNSGSVTSSNYPDWYQQTPGQAPRLLIYNTNSRHSGVPSRFSGSISGNKAALTITGAQPEDEADYYCALYMGSDSVVFGGGTHLTVL
notes: it was detected with goat anti-human IgG (Fc); also called mAb 14C7; llama antibody 14C7
For B3, the % of binding to wild-type peptide [1] was 8.76%, the % of binding to wild-type peptide [2] was 8.67% and the % of binding to wild-type peptide [3] was 8.7%. For the same binder, the % of binding to wild-type peptide [4] was 8.98%, the % of binding to wild-type peptide [5] was 7.49% and the % of binding to wild-type peptide [6] was 9.94%. For the same binder, the % of binding to wild-type peptide [7] was 9.44%.
